Results on eight variants are retold here after FireProtDB (doi:10.1073/pnas.0804396105).

B1: Adenosine receptor A2a, P29274 (parent)
chain: MPIMGSSVYITVELAIAVLAILGNVLVCWAVWLNSNLQNVTNYFVVSLAAADIAVGVLAIPFAITISTGFCAACHGCLFIACFVLVLTQSSIFSLLAIAIDRYIAIRIPLRYNGLVTGTRAKGIIAICWVLSFAIGLTPMLGWNNCGQPKEGKNHSQGCGEGQVACLFEDVVPMNYMVYFNFFACVLVPLLLMLGVYLRIFLAARRQLKQMESQPLPGERARSTLQKEVHAAKSLAIIVGLFALCWLPLHIINCFTFFCPDCSHAPLWLMYLAIVLSHTNSVVNPFIYAYRIREFRQTFRKIIRSHVLRQQEPFKAAGTSARVLAAHGSDGEQVSLRLNGHPPGVWANGSAPHPERRPNGYALGLVSGGSAQESQGNTGLPDVELLSHELKGVCPEPPGLDDPLAQDGAGVS

Where “and” joins values, the source holds several entries; their conditions need not be identical. Equal entries are not always repeated.

In the data set the parent is B1. As to conditions: Homo sapiens; pH 7.4; Thermal; Activity; Tris 50 mM; NaCl 0.4 M; structure 4UHR; whole UniProt chain shown.

A word on the Tm: it is the temperature at the midpoint of the melting transition. MPIMGSSVYITVELAIAVLAILGNVLVCWAVWLNSNLQNVTNYFVVSLAAADIAVGVLAIPFAITISTGFCAACHGCLFIACFVLVLTQSSIFSLLAIAIDRYIAIRIPLRYNGLVTGTRAKGIIAICWVLSFAIGLTPMLGWNNCGQPKEGKNHSQGCGEGQVACLFEDVVPMNYMVYFNFFACVLVPLLLMLGVYLRIFLAARRQLKQMESQPLPGERARAALAAEVHAAKSLAIIVGLFALCWLPLHIINCFTFFCPDCSHAPLWLMYLAIVLSHTNSVVNPFIYAYRIREFRQTFRKIIRSHVLRQQEPFKAAGTSARVLAAHGSDGEQVSLRLNGHPPGVWANGSAPHPERRPNGYALGLVSGGSAQESQGNTGLPDVELLSHELKGVCPEPPGLDDPLAQDGAGVS [S223A T224A Q226A K227A]: the Tm was 24 °C and the “change of melting temperature, mutant - wild type (higher = more stable)” value (shortened to “change of melting temperature, mutant”) worked out at 4 °C.

Turning to MPIMGSSVYITVELAIAVLAILGNVLVCWAVWLNSNLQNVTNYFVVSLAAADILVGVLAIPFAITISTGFCAACHGCLFIACFVLVLAQSSIFSLLAIAIDRYIAIRIPLRYNGLVTGTRAKGIIAICWVLSFAIGLTPMLGWNNCGQPKEGKNHSQGCGEGQVACLFEDVVPMNYMVYFNFFACVLVPLLLMLGVYLRIFLAARRQLKQMESQPLPGERARSTLQKEVHAAKSLAIIAGLFALCWLPLHIINCFTFFCPDCSHAPLWLMYLAIVLSHTNSVVNPFIYAYRIREFRQTFRKIIRSHVLRQQEPFKAAGTSARVLAAHGSDGEQVSLRLNGHPPGVWANGSAPHPERRPNGYALGLVSGGSAQESQGNTGLPDVELLSHELKGVCPEPPGLDDPLAQDGAGVS [A54L T88A V239A], the Tm came out at 46 °C and the “change of melting temperature, mutant” value stood at 14 °C.

As for MPIMGSSVYITVELAIAVLAILGNVLVCWAVWLNSNLQNVTNYFVVSLAAADIAVGVLAIPFAITISTGFCAACHGCLFIACFVLVLTQSSIFSLLAIAIDRYIAIRIPLRYNGLVTGTRAKGIIAICWVLSFAIGLTPMLGWNNCGQPKEGKNHSQGCGEGQVACLFEDVVPMNYMVYFNFFACVLVPLLLMLGVYLRIFLLLRRQLKQMESQPLPGERARSTLQKEVHAAKSLAIIVGLFALCWLPLHIINCFTFFCPDCSHAPLWLMYLAIVLSHTNSVVNPFIYAYRIREFRQTFRKIIRSHVLRQQEPFKAAGTSARVLAAHGSDGEQVSLRLNGHPPGVWANGSAPHPERRPNGYALGLVSGGSAQESQGNTGLPDVELLSHELKGVCPEPPGLDDPLAQDGAGVS [A203L A204L], the Tm is 40 °C and 42 °C; the “change of melting temperature, mutant” value is 9 °C and 10 °C.

For the variant MPIMGSSVYITVELAIAVLAILGNVLVCWAVWLNSNLQNVTNYFVVSLAAADILVGVLAIPFAITISTGFCAACAGCLFIACFVLVLTQSSIFSLLAIAIDRYIAIRIPLRYNGLVTGTRAKGIIAICWVLSFAIGLTPMLGWNNCGQPKEGKNHSQGCGEGQVACLFEDVVPMNYMVYFNFFACVLVPLLLMLGVYLRIFLAARRQLKQMESQPLPGERARSTLQKEVHAAKSLAIIAGLFALCWLPLHIINCFTFFCPDCSHAPLWLMYLAIVLSHTNSVVNPFIYAYRIREFRQTFRKIIRSHVLRQQEPFKAAGTSARVLAAHGSDGEQVSLRLNGHPPGVWANGSAPHPERRPNGYALGLVSGGSAQESQGNTGLPDVELLSHELKGVCPEPPGLDDPLAQDGAGVS [A54L H75A V239A], the Tm was found to be 37 °C and the “change of melting temperature, mutant” value was found to be 6 °C.

MPIMGSSVYITVELAIAVLAILGNVLVCWAVWLNSNLQNVTNYFVVSLAAADILVGVLAIPFAITISTGFCAACHGCLFIACFVLVLAQSSIFSLLAIAIDRYIAIRIPLRYNGLVTGTRAKGIIAICWVLSFAIGLTPMLGWNNCGQPKEGKNHSQGCGEGQVACLFEDVVPMNYMVYFNFFACVLVPLLLMLGVYLRIFLAARRQLKQMESQPLPGERARSTLQKEVHAAKSLAIIVGLFALCWLPLHIINCFTFFCPDCSHAPLWLMYLAIVLSHTNSVVNPFIYAYRIREFRQTFRKIIRSHVLRQQEPFKAAGTSARVLAAHGSDGEQVSLRLNGHPPGVWANGSAPHPERRPNGYALGLVSGGSAQESQGNTGLPDVELLSHELKGVCPEPPGLDDPLAQDGAGVS [A54L T88A]: the Tm stood at 39 °C and the “change of melting temperature, mutant” value came to 8 °C.

In the case of MPIMGSSVYITVELAIAVLAILGNVLVCWAVWLNSNLQNVTNYFVVSLAAADIAVGVLAIPFAITISTGFCAACHGCLFIACFVLVLTQSSIFSLLAIAIDRYIAIRIPLRYNGLVTGTRAKGIIAICWVLSFAIGLTPMLGWNNCGQPKEGKNHSQGCGEGQVACLFEDVVPMNYMVYFNFFACVLVPLLLMLGVYLRIFLAARRQLKQMESQPLPGERARSTLQKEVHAAKSLAIIVGLFALCWLPLHIINCFTFFCADCSHAPAWLMYLAIVLSHTNSVVNPFIYAYRIREFRQTFRKIIRSHVLRQQEPFKAAGTSARVLAAHGSDGEQVSLRLNGHPPGVWANGSAPHPERRPNGYALGLVSGGSAQESQGNTGLPDVELLSHELKGVCPEPPGLDDPLAQDGAGVS [P260A L267A], the Tm was 31 °C and 30 °C.

Take MPIMGSSVYITVELAIAVLAILGNVLVCWAVWLNSNLQNVTNYFVVSLAAADILVGVLAIPFAITISTGFCAACHGCLFIACFVLVLTQSSIFSLLAIAIDRYIAIRIPLRYNGLVTGTRAAGIIAICWVLSFAIGLTPMLGWNNCGQPKEGKNHSQGCGEGQVACLFEDVVPMNYMVYFNFFACVLVPLLLMLGVYLRIFLAARRQLKQMESQPLPGERARSTLQKEVHAAKSAAIIVGLFALCWLPLHIINCFTFFCPDCSHAPLWLMYLAIVLSHTNSVVNPFIYAYRIREFRQTFRKIIRSHVLRQQEPFKAAGTSARVLAAHGSDGEQVSLRLNGHPPGVWANGSAPHPERRPNGYALGLVSGGSAQESQGNTGLPDVELLSHELKGVCPEPPGLDDPLAQDGAGVS [A54L K122A L235A]: the Tm is 47 °C and 48 °C; the “change of melting temperature, mutant” value was 16 °C.

Take MPIMGSSVYITVELAIAVLAILGNVLVCWAVWLNSNLQNVTNYFVVSLAAADILVGVLAIPFAITISTGFCAACHGCLFIACFVLVLTQSSIFSLLAIAIDRYIAIRIPLRYNGLVTGTRAKGIIAICWVLSFAIGLTPMLGWNNCGQPKEGKNHSQGCGEGQVACLFEDVVPMNYMVYFNFFACVLVPLLLMLGVYLRIFLALRRQLKQMESQPLPGERARSTLQKEVHAAKSLAIIVGLFALCWLPLHIINCFTFFCPDCSHAPLWLMYLAIVLSHTNSVVNPFIYAYRIREFRQTFRKIIRSHVLRQQEPFKAAGTSARVLAAHGSDGEQVSLRLNGHPPGVWANGSAPHPERRPNGYALGLVSGGSAQESQGNTGLPDVELLSHELKGVCPEPPGLDDPLAQDGAGVS [A54L A204L]: the Tm is 33 °C and the “change of melting temperature, mutant” value was 2 °C.
